Source: patent US12312641B2, “Sensitivity marker for antibody-drug conjugate” (priority 2018, dated 2025)

Test system: relapsed and advanced non-small cell lung cancer
Assay: Phase 1 study, dose escalation part, maximum tumor change rate
Format: in vivo, human
Description: In a dose escalation part of a Phase 1 study for patients with relapsed and advanced non-small cell lung cancer, the antibody-drug conjugate (1) was administered intravenously once every three weeks until unacceptable toxicity or worsening of the pathological condition was observed. The dose-limiting toxicity was determined in Cycle 1 (Days 1-21). Tumor sampling was performed after entry into the clinical study following the first dose. Note that a minus value in the maximum tumor change rate means that the tumor has been reduced by administration of antibody-drug conjugate (1).
Gene expression data of each patient were obtained by EdgeSeq after preparing a section from a formalin-fixed paraffin-embedded specimen of tumor tissue of each patient prior to antibody-drug conjugate (1) administration, and cutting out a tumor site by laser microdissection. The obtained count data were normalized by the Median normalization method, thereby the amount of expression of each gene was obtained. All the above tests were performed at HTG Molecular Diagnostics, Inc.
To the Median Normalized Count (MNC) value, after being obtained and normalized at HTG Molecular Diagnostics, Inc., 1 was added, and the sum was transformed to a logarithmic (log2) to obtain a log2[MNC+1] value (Table 15). The log2[MNC+1] value was used to analyze the relationship between the anti-tumor activity of antibody-drug conjugate (1) in each patient (Table 14) and the amount of expression of the hTROP2 gene and the SLFN11 gene. When all of the evaluated patients were grouped into groups having at least a certain amount of expression of the hTROP2 and SLFN11 genes (Table 16), it was shown that the proportion of patients showing at least a certain drug efficacy (maximum tumor change rate of 0% or less) is higher as the hTROP2 gene expression and the SLFN11 gene expression increases (Table 17). In the absence of grouping by SLFN11 gene expression, the proportion of patients showing the maximum tumor change rate of 0% or less was not more than 75 to 80%. […] For example, when the log2[MNC+1] value of the hTROP2 gene exceeds 12 and the log2[MNC+1] value of the SLFN11 gene exceeds 11.5, the proportion of patients in which the maximum tumor change rate is 0% or less is about 80% to 100%.

B1: antibody-drug conjugate (1): humanized anti-hTROP2 antibody (SEQ ID NO: 1 residues 20-470, SEQ ID NO: 2 residues 21-234) conjugated to the exatecan-derivative drug-linker via a thioether bond (conjugate, chains of the INN, looked up)
VH: QVQLVQSGAEVKKPGASVKVSCKASGYTFTTAGMQWVRQAPGQGLEWMGWINTHSGVPKYAEDFKGRVTISADTSTSTAYLQLSSLKSEDTAVYYCARSGFGSSYWYFDVWGQGTLVTVSS
VL: DIQMTQSPSSLSASVGDRVTITCKASQDVSTAVAWYQQKPGKAPKLLIYSASYRYTGVPSRFSGSGSGTDFTLTISSLQPEDFAVYYCQQHYITPLTFGQGTKLEIK
modifications: exatecan-derivative drug-linker
Maximum tumor change rate (%) (Patient #1, 2 mg/kg intravenously once every three weeks): −7.14% | Maximum tumor change rate (%) (Patient #2, 2 mg/kg intravenously once every three weeks): −68.52% | Maximum tumor change rate (%) (Patient #3, 2 mg/kg intravenously once every three weeks): −4.76% | Maximum tumor change rate (%) (Patient #4, 2 mg/kg intravenously once every three weeks): −11.70% | Maximum tumor change rate (%) (Patient #5, 2 mg/kg intravenously once every three weeks): 52.00% | Maximum tumor change rate (%) (Patient #6, 2 mg/kg intravenously once every three weeks): 3.15% | Maximum tumor change rate (%) (Patient #7, 4 mg/kg intravenously once every three weeks): 33.33% | Maximum tumor change rate (%) (Patient #8, 4 mg/kg intravenously once every three weeks): −53.13% | Maximum tumor change rate (%) (Patient #9, 6 mg/kg intravenously once every three weeks): −52.27% | Maximum tumor change rate (%) (Patient #10, 8 mg/kg intravenously once every three weeks): −3.47% | Maximum tumor change rate (%) (Patient #11, 8 mg/kg intravenously once every three weeks): −35.46% | Maximum tumor change rate (%) (Patient #12, 8 mg/kg intravenously once every three weeks): −63.64% | Proportion of patients showing a maximum tumor change rate of 0% or less (log2[MNC+1]: hTROP2 >12, SLFN11 >11.5, 8 patients): 88% | Proportion of patients showing a maximum tumor change rate of 0% or less (log2[MNC+1]: hTROP2 >12, SLFN11 >12.5, 4 patients): 100% | Proportion of patients showing a maximum tumor change rate of 0% or less (log2[MNC+1]: hTROP2 >12, SLFN11 All, 9 patients): 78% | Proportion of patients showing a maximum tumor change rate of 0% or less (log2[MNC+1]: hTROP2 >14, SLFN11 >11.5, 5 patients): 80% | Proportion of patients showing a maximum tumor change rate of 0% or less (log2[MNC+1]: hTROP2 >14, SLFN11 >12.5, 2 patients): 100% | Proportion of patients showing a maximum tumor change rate of 0% or less (log2[MNC+1]: hTROP2 >14, SLFN11 All, 5 patients): 80% | Proportion of patients showing a maximum tumor change rate of 0% or less (log2[MNC+1]: hTROP2 All, SLFN11 >11.5, 11 patients): 82% | Proportion of patients showing a maximum tumor change rate of 0% or less (log2[MNC+1]: hTROP2 All, SLFN11 >12.5, 5 patients): 100% | Proportion of patients showing a maximum tumor change rate of 0% or less (log2[MNC+1]: hTROP2 All, SLFN11 All, 12 patients): 75%
